Test [1] has as its target T1, SspB_milli (UniProt P45206 1-150, A58V). Kind of test: fluorescence polarisation.
Test [2] has as its target T1, SspB_milli. Description: fluorescence polarisation. This is another data set of the same source. (Polarisation of emitted light reports the rotation of a fluorescent probe.)

B1: improved Light Inducible Dimer (iLID) (designed binder)
chain: MRGSHHHHHHGSLATTLERIEKNFVITDPRLPDNPIIFASDSFLQLTEYSREEILGRNCRFLQGPETDRATVRKIRDAIDNQTEVTVQLINYTKSGKKFWNVFHLQPMRDYKGDVQYFIGVQLDGTERLHGAAEREAVCLIKKTAFQIAEAANDENYF
modifications: flavin mononucleotide (FMN) cofactor; in the lit state a metastable covalent bond of FMN with Cys450
In the case of B1, in the test with SspB_milli [1], binding was characterised by a dissociation constant (Kd) of 56 ± 6 µM. Besides, in the test with SspB_milli [2], the “fold weaker than the lit state” value is at least 25 fold.

These data come from PMC5332220 (Biochemistry, 2016).
